Patent US20090131309A1, “ICA512 COUPLES INSULIN SECRETION AND GENE EXPRESSION IN BETA-CELLS” (Technische Universität Dresden Medizinizche Fakultät Carl …, priority 2004, published 2009)
Starred links: 1 amine or outer side, 2 acyl side, 3 side chain; linkers in the order of their positions; H or OH if unused. Positions of bridges follow the written chain, without caps; N, C: chain ends. Non-standard residues stand in square brackets, D forms with d. Residues, ends and D or L forms follow the SMILES beside them. Chains are numbered I, II in the order given. Actinocin(9to1) = Cc1c2oc3c(C)ccc(C(=O)[*:1])c3nc-2c(C(=O)[*:2])c(N)c1=O; NMeV = CN[C@H](C(=O)O)C(C)C; Sar = CNCC(=O)O

Tests used:
INS-1 cells = assay: Uridine incorporation in INS-1 cells; type: cell-based, rat; details: 5 μg/ml actinomycin D; ICA512-CCF-GFP-transfected INS-1 cells
pro-ICA512 = details: cells stimulated for 2 hours; reference 8; cited from earlier work
[1] = target: T1, in-vitro transcribed and translated [^35S]-labeled PIASy (mouse, UniProt Q9JM05 1-507, [35S]-methionine label); assay: GST pull-down, SDS-PAGE and autoradiography
T1 construct: The mouse PIASy cDNA in pcDNA3.1 is the only untagged PIASy construct described; also called [^35S]-PIASy; [^35S]-methionine-PIASy
T1 sequence (looked up): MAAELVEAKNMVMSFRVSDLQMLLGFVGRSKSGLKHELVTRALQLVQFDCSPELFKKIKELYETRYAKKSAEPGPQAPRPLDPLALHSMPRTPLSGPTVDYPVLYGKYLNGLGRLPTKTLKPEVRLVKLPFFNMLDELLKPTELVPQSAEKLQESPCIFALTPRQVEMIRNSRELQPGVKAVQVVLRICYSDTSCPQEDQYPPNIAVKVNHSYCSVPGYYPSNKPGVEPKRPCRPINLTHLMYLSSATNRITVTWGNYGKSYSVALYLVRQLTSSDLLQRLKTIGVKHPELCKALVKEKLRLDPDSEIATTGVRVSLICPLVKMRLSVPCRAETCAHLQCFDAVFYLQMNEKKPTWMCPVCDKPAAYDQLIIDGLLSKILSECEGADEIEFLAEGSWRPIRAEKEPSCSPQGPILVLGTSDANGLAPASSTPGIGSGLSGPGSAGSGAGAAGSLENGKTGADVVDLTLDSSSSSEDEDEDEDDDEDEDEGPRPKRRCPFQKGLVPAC

STAT5b [2] = target: T2, STAT5b (rat, UniProt P52632 1-786); assay: cell-based or functional assay
T2 sequence (looked up): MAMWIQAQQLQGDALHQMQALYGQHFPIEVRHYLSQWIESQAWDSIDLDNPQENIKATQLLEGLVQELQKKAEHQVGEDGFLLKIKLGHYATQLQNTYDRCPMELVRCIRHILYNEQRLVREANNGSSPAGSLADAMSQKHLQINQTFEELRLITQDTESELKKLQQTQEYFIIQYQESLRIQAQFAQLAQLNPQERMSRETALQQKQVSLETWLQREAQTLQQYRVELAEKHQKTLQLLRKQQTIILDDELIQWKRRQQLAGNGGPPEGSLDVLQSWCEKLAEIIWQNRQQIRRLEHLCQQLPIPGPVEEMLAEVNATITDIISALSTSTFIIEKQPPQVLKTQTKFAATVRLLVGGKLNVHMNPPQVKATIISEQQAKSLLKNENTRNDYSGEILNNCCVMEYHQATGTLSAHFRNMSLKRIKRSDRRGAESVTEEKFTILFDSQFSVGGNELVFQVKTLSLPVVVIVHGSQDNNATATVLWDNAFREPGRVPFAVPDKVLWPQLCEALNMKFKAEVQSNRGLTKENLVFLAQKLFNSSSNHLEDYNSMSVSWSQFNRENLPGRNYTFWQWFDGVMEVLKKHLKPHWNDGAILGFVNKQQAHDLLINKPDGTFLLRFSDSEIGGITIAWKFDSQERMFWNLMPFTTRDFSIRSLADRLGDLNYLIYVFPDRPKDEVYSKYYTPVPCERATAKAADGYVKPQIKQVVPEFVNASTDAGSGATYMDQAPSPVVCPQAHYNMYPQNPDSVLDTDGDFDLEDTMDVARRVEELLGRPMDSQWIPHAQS

STAT5b [3] = target: T2, STAT5b; assay: anti-GFP immunoprecipitation from total INS-1 extracts, immunoblot for STAT5b
Protocol: Immunoprecipitation. INS-1 cells were transiently transfected With one or more of the following constructs: GFP, ICA512-CCF-GFP, ICA512-CCF(K/A⁷⁵⁴)-GFP, SUMO-1 and HA-SUMO-1. Anti-GFP IgGs were used for immunoprecipitations from total or cytosolic extracts. Immunoprecipitates were immunoblotted with anti-STAT5b, anti-PY-STAT5, anti-GFP or anti-HA antibodies. 600 μg and 200 μg protein were used as starting material for immunopreciptation of sumoylated ICA512 and STAT5, respectively.

PIASy-YFP = target: T3, PIASy-YFP (mouse, UniProt Q9JM05 2-507); assay: FRET by acceptor photobleaching in nuclei of co-transfected INS-1 cells
T3 construct: whole, on cells; Transiently expressed in INS-1 cells; nuclear; not shown: YFP encoded by pEYFP-N2 (Clontech), fused at the C-terminus
T3 sequence (looked up): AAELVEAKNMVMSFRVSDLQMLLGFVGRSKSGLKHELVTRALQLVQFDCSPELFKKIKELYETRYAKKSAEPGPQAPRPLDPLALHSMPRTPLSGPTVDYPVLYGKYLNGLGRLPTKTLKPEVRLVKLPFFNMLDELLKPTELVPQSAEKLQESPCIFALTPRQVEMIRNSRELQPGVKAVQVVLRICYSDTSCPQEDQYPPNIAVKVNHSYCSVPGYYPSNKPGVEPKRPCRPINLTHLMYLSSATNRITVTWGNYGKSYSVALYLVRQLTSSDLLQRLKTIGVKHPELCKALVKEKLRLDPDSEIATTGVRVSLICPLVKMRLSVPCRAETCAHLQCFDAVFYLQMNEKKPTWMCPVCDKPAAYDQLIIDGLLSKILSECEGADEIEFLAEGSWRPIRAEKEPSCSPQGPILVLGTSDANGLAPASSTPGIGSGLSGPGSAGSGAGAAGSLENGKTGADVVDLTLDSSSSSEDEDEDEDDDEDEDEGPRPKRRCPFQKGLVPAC
Protocol: FRET analysis. INS-1 cells transiently co-transfected with ICA512-CFP, PIASy-YFP, Ism4-YFP and Ism4-CFP were incubated either in resting or stimulating buffer for 90 minutes. Following fixation in 2% paraformahaldehyde, cells were imaged with an inverted […] confocal microscope (Zeiss) using a Plan-Apochromat 100× 1.4 oil DIC objective, The pinhole diameter was set between 1.0 and 1.25 Airy-Unit. […] 458 nm and 514 nm laser lines were used to excite CFP and YFP, respectively. CFP images were acquired with a 458 nm dichroic mirror and a bandpass filter of 475-495, while YFP fluorescence was collected with a 514 nm dichroic mirror and a bandpass filter of 530-600 nm. FRET was assessed by measuring the dequenching of CFP during the photobleaching of YFP performed with the 514 nm laser line at 70% power and for six cycles of 30 sec. each. Mean fluorescence of CFP and YFP were determined by tracing the nuclear perimeter of the cell using the “region of interest” software function. Fluorescence intensity of CFP after photobleaching was normalized to 100% at time 0. In each experiment, 6-9 fields for each slide were photobleached and recorded. Each experiment was independently performed two times.

Question: Which “effect on the increase of 3H-uridine incorporation” value (INS-1 cells) does the source give for `Cc1c2oc3c(C)ccc(C(=O)N[C@@H]4C(=O)N[C@H](C(C)C)C(=O)N5CCC[C@H]5C(=O)N(C)CC(=O)N(C)[C@@H](C(C)C)C(=O)O[C@@H]4C)c3nc-2c(C(=O)N[C@@H]2C(=O)N[C@H](C(C)C)C(=O)N3CCC[C@H]3C(=O)N(C)CC(=O)N(C)[C@@H](C(C)C)C(=O)O[C@@H]2C)c(N)c1=O` [actinomycin D, reference compound] (I: T[dV]P[Sar][NMeV] / II: T[dV]P[Sar][NMeV]; ester I:1-I:C, II:1-II:C; linker I:N-II:N via Actinocin(9to1)) here?
Answer: The value was “abolished”.

Question: What about the “rapid induction of pro-ICA512” value (pro-ICA512) of the same molecule?
Answer: The value was “did not prevent the rapid induction of pro-ICA512”.

B1: GST-ICA512 (800-979) (other)
chain: ESGCTVIVMLTPLVEDGVKQCDRYWPDEGASLYHVYEVNLVSEHIWCEDFLVRSFYLKNVQTQETRTLTQFHFLSWPAEGTPASTRPLLDFRRKVNKCYRGRSCPIIVHCSDGAGRTGTYILIDMVLNRMAKGVKEIDIAATLEHVRDQRPGLVRSKDQFEFALTAVAEEVNAILKALPQ
notes: Bacterially expressed; not shown: glutathione S-transferase (GST) fusion partner
Question: Does B1 bind [1]?
Answer: Result: no binding

B2: ICA512-CCF-GFP (other, not shown: large carriers)
chain: SQFSDAAQASPSSHSSTPSWCEEPAQANMDISTGHMILAYMEDHLRNRDRLAKEWQALCAYQAEPNTCATAQGEGNIKKNRHPDFLPYDHARIKLKVESSPSRSDYINASPIIEHDPRMPAYIATQGPLSHTIADFWQMVWESGCTVIVMLTPLVEDGVKQCDRYWPDEGASLYHVYEVNLVSEHIWCEDFLVRSFYLKNVQTQETRTLTQFHFLSWPAEGTPASTRPLLDFRRKVNKCYRGRSCPIIVHCSDGAGRTGTYILIDMVLNRMAKGVKEIDIAATLEHVRDQRPGLVRSKDQFEFALTAVAEEVNAILKALPQ
Question: Which “luciferase activity of the STAT reporter 8GLE-CAS-FL in hGH-stimulated INS-1 cells, relative to GFP cells” value (STAT5b [2]) does the source give for B2 here?
Answer: Its value is > 500%.

B3: ICA512-CCF(K/A^754)-GFP (other)
chain: SQFSDAAQASPSSHSSTPSWCEEPAQANMDISTGHMILAYMEDHLRNRDRLAKEWQALCAYQAEPNTCATAQGEGNIKKNRHPDFLPYDHARIKLAVESSPSRSDYINASPIIEHDPRMPAYIATQGPLSHTIADFWQMVWESGCTVIVMLTPLVEDGVKQCDRYWPDEGASLYHVYEVNLVSEHIWCEDFLVRSFYLKNVQTQETRTLTQFHFLSWPAEGTPASTRPLLDFRRKVNKCYRGRSCPIIVHCSDGAGRTGTYILIDMVLNRMAKGVKEIDIAATLEHVRDQRPGLVRSKDQFEFALTAVAEEVNAILKALPQ
notes: Expressed in INS-1 cells; not shown: GFP encoded by pEGFP-N1 (Clontech), fused at the C-terminus
Question: Does B3 bind (STAT5b [3])?
Answer: Result: binds

B4: ICA512-CFP (other)
chain: SQFSDAAQASPSSHSSTPSWCEEPAQANMDISTGHMILAYMEDHLRNRDRLAKEWQALCAYQAEPNTCATAQGEGNIKKNRHPDFLPYDHARIKLKVESSPSRSDYINASPIIEHDPRMPAYIATQGPLSHTIADFWQMVWESGCTVIVMLTPLVEDGVKQCDRYWPDEGASLYHVYEVNLVSEHIWCEDFLVRSFYLKNVQTQETRTLTQFHFLSWPAEGTPASTRPLLDFRRKVNKCYRGRSCPIIVHCSDGAGRTGTYILIDMVLNRMAKGVKEIDIAATLEHVRDQRPGLVRSKDQFEFALTAVAEEVNAILKALPQ
notes: The FRET was read in the nucleus, so the partner of PIASy-YFP there is the cleaved cytoplasmic fragment ICA512-CCF-CFP; Its N-terminal limit in cells is not determined; also called ICA512-CCF-CFP (its cleaved cytoplasmic fragment in the nucleus); not shown: CFP encoded by pECFP-N1 (Clontech), fused at the C-terminus
Question: For B4, which “fold increase of the recovery of ICA512-CFP signal after photobleaching of PIASy-YFP (FRET), stimulated against resting cells” value (PIASy-YFP) is on record?
Answer: The value was ~5 fold.
